Results as given in publication PMC12908443 (Nature metabolism, 2021).

Legend:
[1] = target: T1, Recombinant 6 × His-tagged Acs2 (Acs2–His6) (budding yeast (S. cerevisiae), UniProt P52910 1-683); assay: pull-down
T1 sequence (looked up): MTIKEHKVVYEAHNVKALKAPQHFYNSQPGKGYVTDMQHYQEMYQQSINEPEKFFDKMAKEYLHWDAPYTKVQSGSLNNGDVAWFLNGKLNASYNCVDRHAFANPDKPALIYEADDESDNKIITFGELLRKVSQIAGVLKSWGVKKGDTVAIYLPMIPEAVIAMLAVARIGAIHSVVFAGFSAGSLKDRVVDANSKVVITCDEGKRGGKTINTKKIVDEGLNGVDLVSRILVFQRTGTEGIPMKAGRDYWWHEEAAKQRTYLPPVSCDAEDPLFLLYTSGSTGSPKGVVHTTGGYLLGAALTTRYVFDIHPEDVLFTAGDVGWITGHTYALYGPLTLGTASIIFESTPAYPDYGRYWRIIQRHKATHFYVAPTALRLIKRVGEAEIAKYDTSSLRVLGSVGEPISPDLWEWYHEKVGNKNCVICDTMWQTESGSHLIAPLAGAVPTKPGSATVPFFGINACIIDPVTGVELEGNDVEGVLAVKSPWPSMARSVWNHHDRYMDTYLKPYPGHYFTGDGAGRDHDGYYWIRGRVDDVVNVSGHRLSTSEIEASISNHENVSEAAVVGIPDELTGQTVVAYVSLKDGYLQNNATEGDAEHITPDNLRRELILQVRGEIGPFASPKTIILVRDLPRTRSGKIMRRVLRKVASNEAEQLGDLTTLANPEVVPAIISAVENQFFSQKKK

[2] = target: T2, Glutathione S-transferase (GST)–Acs2 (budding yeast (S. cerevisiae), UniProt P52910 1-683); assay: pull-down
T2 sequence (looked up): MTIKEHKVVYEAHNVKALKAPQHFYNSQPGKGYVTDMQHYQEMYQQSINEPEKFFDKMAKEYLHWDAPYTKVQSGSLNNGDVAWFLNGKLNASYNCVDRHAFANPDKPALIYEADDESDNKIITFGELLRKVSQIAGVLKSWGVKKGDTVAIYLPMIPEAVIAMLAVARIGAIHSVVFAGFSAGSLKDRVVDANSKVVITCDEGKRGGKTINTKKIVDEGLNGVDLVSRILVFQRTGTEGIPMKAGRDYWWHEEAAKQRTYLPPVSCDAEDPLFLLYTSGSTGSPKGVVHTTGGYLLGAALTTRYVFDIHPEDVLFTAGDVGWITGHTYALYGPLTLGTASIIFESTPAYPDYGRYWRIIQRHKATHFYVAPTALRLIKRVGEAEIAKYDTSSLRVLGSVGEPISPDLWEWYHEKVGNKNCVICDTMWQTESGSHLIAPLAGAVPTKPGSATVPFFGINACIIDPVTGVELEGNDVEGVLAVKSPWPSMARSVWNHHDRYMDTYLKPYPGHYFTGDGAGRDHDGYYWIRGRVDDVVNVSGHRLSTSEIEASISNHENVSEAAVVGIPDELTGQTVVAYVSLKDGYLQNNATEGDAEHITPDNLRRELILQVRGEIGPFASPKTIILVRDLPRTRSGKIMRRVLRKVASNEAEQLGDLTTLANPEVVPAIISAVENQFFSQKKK

Binder	binding result [1]	binding result [2]
Recombinant CL7-tagged Sas2 (Sas2–CL7) (enzyme, budding yeast (S. cerevisiae), UniProt P40963 1-338, looked up) MARSLSQSLTATTQKLKGKKNGGKGKNKPSAKIKKTQKEMLYGILNERNIRQIQFGLNKKFSTWYGSAVYFDPETKRLGCSETKGQLSSVSNSQYWLDTLFVCEYCFKYTDDQTRFVGHVASCPFQYRVPGKIKYKSPEYTIRRVKGSKYQLFCQCLCLFTKLYLDNKSMYFKVDHYEFYIVYETGSTKPMGFFSKDLVSYQQNNLACILIFPPYQRRGLGLLLIEFSYKLSQLEGVISGPEVPLSPFGLIGYLKYWSQILCWHLIEGDLAHYDKVTLEDLSIVTGMRVNDVILTLKHLNCIGENNQIYLQSLNSWLKLHGTKRNWFKLKDEYLLIDD	binds	–
Purified recombinant Sas2 (Sas2–His6) (enzyme, budding yeast (S. cerevisiae), UniProt P40963 1-338, looked up) MARSLSQSLTATTQKLKGKKNGGKGKNKPSAKIKKTQKEMLYGILNERNIRQIQFGLNKKFSTWYGSAVYFDPETKRLGCSETKGQLSSVSNSQYWLDTLFVCEYCFKYTDDQTRFVGHVASCPFQYRVPGKIKYKSPEYTIRRVKGSKYQLFCQCLCLFTKLYLDNKSMYFKVDHYEFYIVYETGSTKPMGFFSKDLVSYQQNNLACILIFPPYQRRGLGLLLIEFSYKLSQLEGVISGPEVPLSPFGLIGYLKYWSQILCWHLIEGDLAHYDKVTLEDLSIVTGMRVNDVILTLKHLNCIGENNQIYLQSLNSWLKLHGTKRNWFKLKDEYLLIDD	–	binds
